Assay results reported in article PMC8658920.

Target: heterochromatin protein HP1γ (UniProt Q13185)
Experiment: proximity labelling; PUB (proximity utilizing biotinylation): BAP-HP1γ co-expressed with BirA-HP1γ or, in a separate dish, with BirA-Tap54α; 4 h biotinylation time; MRM LC-MS/MS on Agilent nanoHPLC-Chip ion trap, Skyline; ratio of biotinylation level, experiment versus control

heterochromatin protein HP1γ, Q13185 1-183 (natural protein; other documents disagree on this pair), sequence (Q13185 whole entry): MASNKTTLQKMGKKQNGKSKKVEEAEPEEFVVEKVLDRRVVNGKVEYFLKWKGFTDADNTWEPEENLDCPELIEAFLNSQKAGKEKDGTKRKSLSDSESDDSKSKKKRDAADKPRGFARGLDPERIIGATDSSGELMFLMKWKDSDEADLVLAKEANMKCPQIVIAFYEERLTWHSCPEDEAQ

Substance: heterochromatin protein HP1γ, Q13185 1-183 (natural protein; other documents disagree on this pair)
- ratio of biotinylation level, experiment versus control BAP-HP1γ + BirA-Tap54α (4 h biotinylation time): 32
